According to publication PMC7969954, “Pol α-primase dependent nuclear localization of the mammalian CST complex” (Communications Biology, 2021):

Biological target: T1, STN1-TEN1 complex (human, UniProt Q9H668 1-368; Q86WV5 1-123)
T1 construct: STN1, human, full length (flSTN1); TEN1, human, full length (flTEN1); source: E. coli ScarabXpress T7 lac, co-lysed, purified as a complex (Ni-NTA, amylose, HS and HQ)
T1 sequence (looked up) 1: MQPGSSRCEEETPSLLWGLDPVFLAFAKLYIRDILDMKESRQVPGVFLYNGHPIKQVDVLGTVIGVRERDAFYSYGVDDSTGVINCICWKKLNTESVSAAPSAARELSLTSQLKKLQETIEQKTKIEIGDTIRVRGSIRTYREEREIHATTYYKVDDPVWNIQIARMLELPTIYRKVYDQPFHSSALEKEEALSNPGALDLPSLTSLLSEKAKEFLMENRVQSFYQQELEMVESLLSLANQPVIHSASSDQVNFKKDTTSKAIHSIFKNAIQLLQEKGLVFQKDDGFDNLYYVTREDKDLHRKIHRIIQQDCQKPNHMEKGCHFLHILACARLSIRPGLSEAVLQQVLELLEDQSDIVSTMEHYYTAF
T1 sequence (looked up) 2: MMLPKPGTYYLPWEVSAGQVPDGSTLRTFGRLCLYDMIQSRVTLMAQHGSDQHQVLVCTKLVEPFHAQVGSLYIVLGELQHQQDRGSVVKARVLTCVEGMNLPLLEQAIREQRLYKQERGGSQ
Assay: pull-down; purified STN1-TEN1 complex incubated with purified CTC1 (1002-end) at 4 °C; complex bound to an amylose column and analysed by SDS-PAGE
Conditions: both partners purified

binding result: binds
B1: CTC1 (1002-end) (domain or fragment, human, UniProt Q2NKJ3 1002-1217, looked up)
chain: TISIPLPHIYLAELLQGGQSPFQATASCHIVSVFSLQLFWVCAYCTSICRQGKCTRLGSTCPTQTAISQAIIRLLVEDGTAEAVVTCRNHHVAAALGLCPREWASLLDFVQVPGRVVLQFAGPGAQLESSARVDEPMTMFLWTLCTSPSVLRPIVLSFELERKPSKIVPLEPPRLQRFQCGELPFLTHVNPRLRLSCLSIRESEYSSSLGILASSC
notes: CTC1, human, residues 1002-end; also called CTC1 residues 1002-end; source: E. coli ScarabXpress T7 lac, purified (Ni-NTA, HS and HQ)
